Biological target: Clover-SNAP-25-mRuby2 FRET sensor (UniProt P60880)
Sequence of UniProt P60880 (P60880 whole entry, looked up): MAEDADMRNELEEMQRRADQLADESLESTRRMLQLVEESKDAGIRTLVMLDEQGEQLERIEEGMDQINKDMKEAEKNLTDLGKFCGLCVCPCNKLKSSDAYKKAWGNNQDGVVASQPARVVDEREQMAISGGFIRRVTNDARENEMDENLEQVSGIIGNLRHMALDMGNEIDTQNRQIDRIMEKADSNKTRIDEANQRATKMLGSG

For “WT tALC (truncated wild-type BoNT/A-LC, residues 1-424)”, the % activity relative to WT tALC was 100% and the “dynamic range in FRET upon SNAP-25 cleavage” value was 6-fold emission ratio in 30 minutes.
